These are literature values, as cited in paper PMC7109197.

Where two headings read alike, the source gives them in different places. Some results are limits rather than exact numbers.

Assay in all cases: NMR
In data set [1] the target is cardiac troponin C N-domain (Homo sapiens) (UniProt P63316).
Data set [2] has the same target. This is another data set of the same source.
For data set [3], the target named is cardiac troponin C CTD (Homo sapiens) (UniProt P63316).
Data set [4] has the same target. This is another data set of the same source.

As to “cTnI switch peptide switch peptide (from UniProt P19429)”, the Kd (commonly the constant that tells how readily two partners part at equilibrium) was 600 µM in data set [1] and 370 µM in data set [2].

On to “cardiac troponin I 34-71 (from UniProt P19429)”, for which the Kd in data set [3] was 3 µM; in data set [4], less than 1 µM.
